Target: T1, Aβ1-42 fibrils (UniProt P05067 672-713)
T1 construct: domain: Aβ1-42; Aggregated (fibrillar) form coated on the ELISA plate; also called fibrillar amyloid-β42; fibrillar Aβ42
Experiment: direct-binding ELISA; plate coated with Aβ1-42 fibrils, serial dilutions of antibody, anti-mouse HRP detection
Experimental: A131-42 fibrils were generated by incubating 0.1 mM A131-42 (JPT Peptide Technologies, Germany) in 10 mM HCl for 3 d at 37° C. A MaxiSorp ELISA plate was coated with […] Aβ₁₋₄₂ fibrils in 0.1M sodium bicarbonate buffer and then blocked with 1% bovine serum albumin.

T1 sequence (P05067 672-713 limits assumed): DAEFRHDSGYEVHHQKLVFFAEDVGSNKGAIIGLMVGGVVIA

B1: 6E10 antibody (antibody, V domains shown)
VH: EVQLQQSGAELVKPGASVKLCTASGFNIKDTYIHWVKQRPEQGLEWIGRFDPVNVNTRYDSRFRGKATITSDASSNTAYLHLNSLTSEDTAVYYCSRSYYNGRRRFTYWGQGTLVTVSA
VL: DIVMTQSPSSLTVTAGEKVALTCKASQSLLSSGNQKNYLTWYQQKPGQPPKLLIYWASIRESGVPDRFTGSGSGTFFTLTISSVQAEDLAVYYCQNDYNYPFTFGSGTKLEIK
In the case of B1, the EC50 is reported as 1.18 nM.

Reference: patent publication US20230030950A1 (UNIVERSITY OF QUEENSLAND, published 2023)
